Laboratory results from patent US20210284724A1 (I MAB BIOPHARMA US, published 2021).
Positions count from the first letter of the chain named.

T1: human CXCL13 (human, UniProt O43927 23-109)
T1 construct: also called huCXCL13; rhCXCL13
T1 sequence (looked up): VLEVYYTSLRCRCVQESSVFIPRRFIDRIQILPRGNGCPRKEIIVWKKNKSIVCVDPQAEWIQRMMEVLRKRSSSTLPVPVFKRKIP

B1: 71F4A3-VH2VL2 (Fab, V domains shown)
VH: EVQLVQSGGGLVQPGGSLRLSCAASGIDFSRYWMSWVRQAPGKGLEWVAEINPDSSTINYAPSLKDRFTISRDNAKNSLYLQMNSLRAEDTAVYYCARQDDYEYYAMDYWGQGTTVTVSS
VL: DIQMTQSPSSLSASVGDRVTITCKASQDVNTGVAWYQQKPGKAPKLLIYSASYRYTGVPSRFSGSGSGTDFTFTISSVQPEDIATYYCQQYYSTPLTFGGGTKLEIK
notes: Humanized Fab, human gamma 1 and kappa constant domains
B2: 71F4A3-VH3VL2 (Fab, V domains shown)
VH: B1 VH with A49G, L86V
VL: B1 VL
notes: as for B1
B3: 71F4A3-VH4VL1 (Fab, V domains shown)
VH: B1 VH with V48I, A49G, L86V
VL: B1 VL with V78L
notes: as for B1
B4: 71F4A3-VH4VL2 (Fab, V domains shown)
VH: B1 VH with V48I, A49G, L86V
VL: B1 VL
notes: as for B1
B5: 411A11E9-VH2VL2 (Fab, V domains shown)
VH: EVQLVESGGGLVQPGGSLRLSCAASGFTFSDYYMAWVRQAPGKGLEWVASINYDGGDTYYRDSVKGRFTISRDNAKNSLYLQMNSLRAEDTAVYYCATEEDYDGSYVMDAWGQGTLVTVSS
VL: DIQMTQSPSSLSASVGDRVTITCKASQNINKELTWYQQKPGKAPKRLIYNTNILQTGVPSRFSGSGSGTEFTLTISSLQPEDFATYFCLQQSSLYTFGQGTKLEIK
notes: as for B1
B6: 411A11E9-VH1VL1 (Fab, V domains shown)
VH: B5 VH with T98R
VL: B5 VL with F87Y
notes: as for B1
B7: 411A11E9-VH1VL2 (Fab, V domains shown)
VH: B5 VH with T98R
VL: B5 VL
notes: as for B1
B8: 411A11E9-VH1VL3 (Fab, V domains shown)
VH: B5 VH with T98R
VL: B5 VL with V58I
notes: as for B1
B9: 411A11E9-VH1VL4 (Fab, V domains shown)
VH: B5 VH with T98R
VL: B5 VL with V58I, F71Y
notes: as for B1
B10: 411A11E9-VH2VL1 (Fab, V domains shown)
VH: B5 VH
VL: B5 VL with F87Y
notes: as for B1
B11: 411A11E9-VH2VL3 (Fab, V domains shown)
VH: B5 VH
VL: B5 VL with V58I
notes: as for B1
B12: 411A11E9-VH2VL4 (Fab, V domains shown)
VH: B5 VH
VL: B5 VL with V58I, F71Y
notes: as for B1
B13: 411A11E9-VH3VL1 (Fab, V domains shown)
VH: B5 VH with A24V
VL: B5 VL with F87Y
notes: as for B1
B14: 411A11E9-VH3VL2 (Fab, V domains shown)
VH: B5 VH with A24V
VL: B5 VL
notes: as for B1
B15: 411A11E9-VH3VL3 (Fab, V domains shown)
VH: B5 VH with A24V
VL: B5 VL with V58I
notes: as for B1
B16: 411A11E9-VH3VL4 (Fab, V domains shown)
VH: B5 VH with A24V
VL: B5 VL with V58I, F71Y
notes: as for B1
B17: 411A11E9-VH4VL1 (Fab, V domains shown)
VH: B5 VH with A24V, I70V, T115A
VL: B5 VL with F87Y
notes: as for B1
B18: 411A11E9-VH4VL2 (Fab, V domains shown)
VH: B5 VH with A24V, I70V, T115A
VL: B5 VL
notes: as for B1
B19: 411A11E9-VH4VL3 (Fab, V domains shown)
VH: B5 VH with A24V, I70V, T115A
VL: B5 VL with V58I
notes: as for B1
B20: 411A11E9-VH4VL4 (Fab, V domains shown)
VH: B5 VH with A24V, I70V, T115A
VL: B5 VL with V58I, F71Y
notes: as for B1
B21: 21H12D9-VH2VL2 (Fab, V domains shown)
VH: QVQLVQSGAEVVKPGASVKVSCKASGYTFTDYYMNWVRQAPGQGLEWMGVINPNNGGTTYKEKFKGRVTMTVDTSISTAYMELSRLRSDDTAVYYCARDDYDAGYWGQGTLVTVSS
VL: DIQMTQSPSSVSTSVGDRVTITCKASQNVDTAVAWYQQKPGKAPKLLIYSASHRYTGVPSRFSGSGSGTDFTLTISSLQPEDFATYYCQQYTDFPLTFGQGTRLEIK
notes: Humanized Fab, human gamma 1 and kappa constant domains; also called 21VH12D9-VH2VL2
B22: 21H12D9-VH1VL3 (Fab, V domains shown)
VH: B21 VH with V12K, V72R
VL: B21 VL with L78V
notes: Humanized Fab, human gamma 1 and kappa constant domains; also called 21VH12D9-VH1VL3
B23: 21H12D9-VH2VL1 (Fab, V domains shown)
VH: B21 VH
VL: B21 VL with T13A
notes: Humanized Fab, human gamma 1 and kappa constant domains; also called 21VH12D9-VH2VL1
B24: 21H12D9-VH2VL3 (Fab, V domains shown)
VH: B21 VH
VL: B21 VL with L78V
notes: Humanized Fab, human gamma 1 and kappa constant domains; also called 21VH12D9-VH2VL3
B25: 21H12D9-VH3VL1 (Fab, V domains shown)
VH: B21 VH with M48I, V68A, M70L
VL: B21 VL with T13A
notes: Humanized Fab, human gamma 1 and kappa constant domains; also called 21VH12D9-VH3VL1
B26: 21H12D9-VH3VL2 (Fab, V domains shown)
VH: B21 VH with M48I, V68A, M70L
VL: B21 VL
notes: Humanized Fab, human gamma 1 and kappa constant domains; also called 21VH12D9-VH3VL2
B27: 21H12D9-VH4VL1 (Fab, V domains shown)
VH: B21 VH with V20M, M48I, V68A, M70L, S77G, V112L
VL: B21 VL with T13A
notes: Humanized Fab, human gamma 1 and kappa constant domains; also called 21VH12D9-VH4VL1
B28: 21H12D9-VH4VL2 (Fab, V domains shown)
VH: B21 VH with V20M, M48I, V68A, M70L, S77G, V112L
VL: B21 VL
notes: Humanized Fab, human gamma 1 and kappa constant domains; also called 21VH12D9-VH4VL2
B29: 21H12D9-VH4VL3 (Fab, V domains shown)
VH: B21 VH with V20M, M48I, V68A, M70L, S77G, V112L
VL: B21 VL with L78V
notes: Humanized Fab, human gamma 1 and kappa constant domains; also called 21VH12D9-VH4VL3

Columns and labels:
human CXCL13 [1] = target: T1, human CXCL13; test: SPR Biacore, off-rate ranking of Fabs
human CXCL13 [2] = target: T1, human CXCL13; test: SPR Biacore 8K, Fab over immobilised CXCL13
Description: Among all humanized Fab samples, 71F4A3-VH2VL1, 71F4A3-VH1VL1 (Hz71F4), 71F4A3-VH1VL2, 71F4A3-VH3VL1, 411A11E9-VH1VL4, 411A11E9-VH3VL4, 411A11E9-VH2VL4, 411A11E9-VH3VL2, 411A11E9-VH1VL2, 21H12D9-VH1VL1, 21H12D9-VH2VL2, 21H12D9-VH3VL3, 21H12D9-VH1VL2, 64C10G1-VH1VL3, 64C10G1-VH1VL4, 64C10G1-VH1VL1, 64C10G1-VH1VL2 were selected to test affinity by Biacore 8K. 10 mM HEPES, 150 mM NaCl, 3 mM EDTA, 0.05% Tween-20, pH 7.4 served as running buffer and 10 mM glycine-HCl, pH2.0 served as regeneration buffer. CXCL13 protein were immobilized on Sensor Chip CM5 using amine coupling method (immobilization level ˜250RU). The serial concentrations of Fab (0-20 nM) were injected over immobilized CXCL13 at the flow rate of 30 μl/min. The dissociation phases were 600s.

Binder | Kd (human CXCL13 [1]) | koff (human CXCL13 [1]) | kon (human CXCL13 [1]) | Kd (human CXCL13 [2]) | koff (human CXCL13 [2]) | kon (human CXCL13 [2])
B1 | 0.607 nM | 0.00137 s⁻¹ | 2.25e+06 M⁻¹ s⁻¹ |  |  | 
B2 | 0.557 nM | 0.00139 s⁻¹ | 2.5e+06 M⁻¹ s⁻¹ |  |  | 
B3 | 0.59 nM | 0.001 s⁻¹ | 1.7e+06 M⁻¹ s⁻¹ |  |  | 
B4 | 0.53 nM | 0.00136 s⁻¹ | 2.57e+06 M⁻¹ s⁻¹ |  |  | 
B5 | 1.05 nM | 0.00271 s⁻¹ | 2.58e+06 M⁻¹ s⁻¹ |  |  | 
B6 | 1.04 nM | 0.013 s⁻¹ | 1.25e+07 M⁻¹ s⁻¹ |  |  | 
B7 | 14.5 nM | 0.00114 s⁻¹ | 78200 M⁻¹ s⁻¹ | 2.83 nM | 0.00161 s⁻¹ | 570000 M⁻¹ s⁻¹
B8 | 3.37 nM | 0.00176 s⁻¹ | 523000 M⁻¹ s⁻¹ |  |  | 
B9 | 1.82 nM | 0.00063 s⁻¹ | 346000 M⁻¹ s⁻¹ | 0.844 nM | 0.00157 s⁻¹ | 1.86e+06 M⁻¹ s⁻¹
B10 | 1.19 nM | 0.00283 s⁻¹ | 2.37e+06 M⁻¹ s⁻¹ |  |  | 
B11 | 1.42 nM | 0.00335 s⁻¹ | 2.36e+06 M⁻¹ s⁻¹ |  |  | 
B12 | 0.634 nM | 0.00105 s⁻¹ | 1.66e+06 M⁻¹ s⁻¹ | 0.931 nM | 0.000887 s⁻¹ | 953000 M⁻¹ s⁻¹
B13 | 1.06 nM | 0.00242 s⁻¹ | 2.29e+06 M⁻¹ s⁻¹ |  |  | 
B14 | 0.919 nM | 0.00163 s⁻¹ | 1.78e+06 M⁻¹ s⁻¹ | 1.2 nM | 0.00126 s⁻¹ | 1.05e+06 M⁻¹ s⁻¹
B15 | 1.01 nM | 0.00207 s⁻¹ | 2.05e+06 M⁻¹ s⁻¹ |  |  | 
B16 | 0.498 nM | 0.00109 s⁻¹ | 2.19e+06 M⁻¹ s⁻¹ | 0.908 nM | 0.000823 s⁻¹ | 906000 M⁻¹ s⁻¹
B17 | 1.03 nM | 0.00281 s⁻¹ | 2.73e+06 M⁻¹ s⁻¹ |  |  | 
B18 | 0.944 nM | 0.00196 s⁻¹ | 2.08e+06 M⁻¹ s⁻¹ |  |  | 
B19 | 1.24 nM | 0.00266 s⁻¹ | 2.14e+06 M⁻¹ s⁻¹ |  |  | 
B20 | 0.611 nM | 0.00107 s⁻¹ | 1.74e+06 M⁻¹ s⁻¹ |  |  | 
B21 | 1.94 nM | 0.000802 s⁻¹ | 414000 M⁻¹ s⁻¹ | 1.32 nM | 0.00195 s⁻¹ | 1.48e+06 M⁻¹ s⁻¹
B22 | 1.67 nM | 0.000975 s⁻¹ | 584000 M⁻¹ s⁻¹ |  |  | 
B23 | 1.74 nM | 0.000991 s⁻¹ | 570000 M⁻¹ s⁻¹ |  |  | 
B24 | 1.98 nM | 0.000992 s⁻¹ | 501000 M⁻¹ s⁻¹ |  |  | 
B25 | 1.76 nM | 0.00131 s⁻¹ | 744000 M⁻¹ s⁻¹ |  |  | 
B26 | 1.47 nM | 0.00138 s⁻¹ | 940000 M⁻¹ s⁻¹ |  |  | 
B27 | 1.73 nM | 0.00107 s⁻¹ | 618000 M⁻¹ s⁻¹ |  |  | 
B28 | 1.54 nM | 0.00114 s⁻¹ | 742000 M⁻¹ s⁻¹ |  |  | 
B29 | 1.59 nM | 0.00116 s⁻¹ | 729000 M⁻¹ s⁻¹ |  |  | 
